From publication PMC12723162, “Alphaherpesvirus pUL21 homologs use non-canonical sequences to compete with cellular adaptors for protein phosphatase 1 binding” (The Journal of Biological Chemistry, 2025)
Positions count from the first letter of the chain named.

System: endogenous PP1α
Experiment: GFP affinity capture / co-IP of endogenous PP1α with GFP-tagged bait
Format: binding, human
Conditions: HEK 293T cells, 24 h post-transfection, GFP-Trap, immunoblot, representative of two independent experiments
Excerpt: Bacterial expression plasmids encoding the mouse PP1γ catalytic domain (residues 7–300)-H6 and pUL21-H6, and mammalian expression vectors encoding pUL21(FV242AA)-GFP, pORF38-GFP and pORF38(FV255AA)-GFP, were described previously ([23]). We note that the mouse and human PP1γ catalytic domains share 100% amino acid identity. pORF38-NLT-H6 was generated by sub-cloning residues 1 to 263 of ORF38 into the vector pOPTnH ([52]). pUL21-RVxF-H6 was generated by inserting the mutations A237V and V239F into pUL21-H6 by QuikChange site-directed mutagenesis. Human PP1α was cloned from HeLa cell cDNA into a vector derived from pF5K (Promega) with an N-terminal Myc epitope tag via restriction-based cloning, and point mutations were introduced into Myc-PP1α by QuikChange mutagenesis. A plasmid encoding pUL21-GFP was generated by sub-cloning a codon-optimized synthetic UL21 gene (GeneArt) into pEGFP-N1 (Clontech), yielding an identical pUL21-GFP amino acid sequence as used in ([23]). pUL21-ΔL, -ΔR and -ΔLR were generated from this vector via inverse PCR, and point mutations were introduced via QuikChange mutagenesis.
Mycoplasma-free human embryonic kidney 293T (HEK 293T) cells (American Type Culture Collection #CRL-3216) were maintained in Dulbecco’s modified Eagle’s medium (DMEM) with high glucose (Merck), supplemented with 10% (v/v) heat-inactivated fetal calf serum and 2 mM L-glutamine (complete DMEM) in a humidified 5% CO2 atmosphere at 37 °C. The identity of the cell line was not independently confirmed.
Monolayers of HEK 293T cells were transfected with 7.7 μg of DNA per 9 cm dish, using 18 μg/ml 25 kDa branched polyethylenimine (Merck) or using TransIt-LT1 (Mirus) in accordance with the manufacturer’s instructions. Cells were harvested 24 h post-transfection and incubated for 30 min in ice-cold 10 mM Tris pH 7.5, 150 mM NaCl, 0.5 mM EDTA, 0.5% Igepal CA-630 (a.k.a. NP-40), 1% (v/v) EDTA-free protease inhibitor cocktail (Merck) before clarification at 21,000×g for 10 min at 4 °C. Lysate protein concentrations were measured using the bicinchoninic acid (BCA) assay (Pierce) and normalized before affinity capture using GFP-Trap resin (ChromoTek) following the manufacturer’s protocol. Samples were eluted by heating the resin to 95 °C for 5 min in 45 μl 2 × SDS-PAGE loading buffer. Proteins were separated by SDS-PAGE and transferred to 0.45 μm nitrocellulose membranes (PerkinElmer or Cytiva). Membranes were stained with Ponceau S and imaged using a G:Box XX9 (Syngene) before blocking in Tris-buffered saline with 0.1% TWEEN-20 (TBS-T) supplemented with 5% (w/v) non-fat milk powder. Immunoblotting was performed using antibodies diluted in blocking buffer as listed below, and immunoblots were imaged using an Odyssey CLx (LI-COR Biosciences). Densitometry was performed using Image Studio Lite version 5.2 (LI-COR Biosciences), and statistical tests were performed using Prism version 7 (GraphPad).
The following primary antibodies and dilutions were used for immunoblotting: rabbit anti-CERT 1:10,000 (Abcam #Ab72536), mouse anti-PP1α 1:1000 (Santa Cruz #sc-271762), mouse anti-Myc 1:4000 (Millipore #05–724), rat anti-tubulin (clone YL1/2) hybridoma supernatant 1:40 ([54]). The anti-CERT antibody was validated using a knock-out cell line. The anti-PP1α antibody has been validated by siRNA knockdown ([55]). The anti-Myc antibody was validated using control experiments lacking Myc-tagged transfected constructs ([56]). The anti-tubulin antibody has been validated by immunofluorescence microscopy, immuno-electron microscopy and radiolabeled immunosorbent assay ([54]). Secondary antibodies from LI-COR Biosciences were diluted 1:10,000 as follows: IRDye 680RD goat anti-rat (#926–68029) and goat anti-mouse (#926–68020), or IRDye 800CW goat anti-rabbit (#926–32221).

B1: pUL21ΔLR (protein)
chain: MELSYATTMHYRDVVFYVTTDRNRAYFVCGGCVYSVGRPCASQPGEIAKFGLVVRGTGPDDRVVANYVRSELRQRGLQDVRPIGEDEVFLDSVCLLNPNVSSELDVINTNDVEVLDECLAEYCTSLRTSPGVLISGLRVRAQDRIIELFEHPTIVNVSSHFVYTPSPYVFALAQAHLPRLPSSLEALVSGLFDGIPAPRQPLDAHNPRTDVVITGTVSEFVQVKHIDRVGPAGVSAPPGPTLRELWWVFYAADRALEEPRADSGLTREEVRAVRGFREQAWKLFGSAGAPRAFIGAALGLSPLQKLAVYYYIIHRERRLSPFPALVRLVGRYTQRHGLYVPRPDDPVLADAINGLFRDALAAGTTAEQLLMFDLLPPKDVPVGSDVQADSTALLRFIESQRLAVPGGVISPEHVAYLGAFLSVLYAGRGRMSAATHTARLTGVTSLVLAVGDVDRLSAFDRGAAGAASRTRAAGYLDVLLTVRLARSQHGQSV
modifications: left off: GFP (from the vector pEGFP-N1), end not stated, kept
  Co-IP of endogenous PP1α: completely abolishes PP1α binding

B2: pUL21ΔL (protein)
chain: MELSYATTMHYRDVVFYVTTDRNRAYFVCGGCVYSVGRPCASQPGEIAKFGLVVRGTGPDDRVVANYVRSELRQRGLQDVRPIGEDEVFLDSVCLLNPNVSSELDVINTNDVEVLDECLAEYCTSLRTSPGVLISGLRVRAQDRIIELFEHPTIVNVSSHFVYTPSPYVFALAQAHLPRLPSSLEALVSGLFDGIPAPRQPLDAHNPRTDVVITGTVSEFVQVKHIDRVGPAGVSPAPPPNNTDSSSLVPGAQDSAPPGPTLRELWWVFYAADRALEEPRADSGLTREEVRAVRGFREQAWKLFGSAGAPRAFIGAALGLSPLQKLAVYYYIIHRERRLSPFPALVRLVGRYTQRHGLYVPRPDDPVLADAINGLFRDALAAGTTAEQLLMFDLLPPKDVPVGSDVQADSTALLRFIESQRLAVPGGVISPEHVAYLGAFLSVLYAGRGRMSAATHTARLTGVTSLVLAVGDVDRLSAFDRGAAGAASRTRAAGYLDVLLTVRLARSQHGQSV
modifications: left off: GFP (from the vector pEGFP-N1), end not stated, kept
  Co-IP of endogenous PP1α: completely abolishes PP1α binding

B3: pORF38-GFP (protein)
chain: MEFPYHSTVSYNGVTFYFNERATRAYFICGGCLISIPRKHGGEIAKFGHVVRGVGPGDRSVASYVRSELNRTGKTWAVSSNNNCVFLDRVALLAAGSGAVDRDLCGTFDVEVEDPTLADYLVSLPVTHLTLVAGVDVTRENKLKLFPTPTAINTTNGFMYVPNEASFSLVYMRMLELPESLQELVSGLFDGTPEIRDALNGSNDDEKTSIIVSRRAADVVTEDVKADDVPISGEPYSEKQPRRRKKSDHITLSNFVQIRTIPRVMDIWDPRHKATTHCIRALSCAVFFADEVIFKARKWPGLEDELNEARETIYTAVVAVYGERGELPFFGHAYGRDLTSCQRFVIVQYILSRWEAFNCYAVIEDLTRSYVNALPSDDDTDQVAQDLIRTIVDTANSLLREVGFIGTLAETLLFLPLPQLPCYKETSHLAKKEGVRILRLAKTGVGLSDTVPVDVSVTERHEYEISRYLDTLYSGDPCYNGAVRLCRLLGSSIPIALYYNTISGNAFEPYFAGRRYIAYLGALFFGRVHQTPFGDGKKTQR
modifications: left off: GFP, end not stated, kept
  Co-IP of endogenous PP1α: consistently co-immunoprecipitated more efficiently by pORF38-GFP than by pUL21-GFP
Listed as pORF38
  Co-IP of endogenous PP1α: efficiently precipitate endogenous PP1α

B4: pORF38-FV255AA (protein)
chain: B3 chain with F255A, V256A
modifications: left off: GFP, end not stated, kept
  Co-IP of endogenous PP1α: the interaction is disrupted by mutation of the TROPPO motif
Listed as FV255AA
  Co-IP of endogenous PP1α: abolished binding to PP1

B5: pUL21ΔR (protein)
chain: MELSYATTMHYRDVVFYVTTDRNRAYFVCGGCVYSVGRPCASQPGEIAKFGLVVRGTGPDDRVVANYVRSELRQRGLQDVRPIGEDEVFLDSVCLLNPNVSSELDVINTNDVEVLDECLAEYCTSLRTSPGVLISGLRVRAQDRIIELFEHPTIVNVSSHFVYTPSPYVFALAQAHLPRLPSSLEALVSGLFDGIPAPRQPLDAHNPRTDVVITGRRAPRPIAGSGAGSGGAGAKRATVSEFVQVKHIDRVGPAGVSAPPGPTLRELWWVFYAADRALEEPRADSGLTREEVRAVRGFREQAWKLFGSAGAPRAFIGAALGLSPLQKLAVYYYIIHRERRLSPFPALVRLVGRYTQRHGLYVPRPDDPVLADAINGLFRDALAAGTTAEQLLMFDLLPPKDVPVGSDVQADSTALLRFIESQRLAVPGGVISPEHVAYLGAFLSVLYAGRGRMSAATHTARLTGVTSLVLAVGDVDRLSAFDRGAAGAASRTRAAGYLDVLLTVRLARSQHGQSV
modifications: left off: GFP (from the vector pEGFP-N1), end not stated, kept
  Co-IP of endogenous PP1α: binding is retained

B6: pUL21-FV242AA (protein)
chain: MELSYATTMHYRDVVFYVTTDRNRAYFVCGGCVYSVGRPCASQPGEIAKFGLVVRGTGPDDRVVANYVRSELRQRGLQDVRPIGEDEVFLDSVCLLNPNVSSELDVINTNDVEVLDECLAEYCTSLRTSPGVLISGLRVRAQDRIIELFEHPTIVNVSSHFVYTPSPYVFALAQAHLPRLPSSLEALVSGLFDGIPAPRQPLDAHNPRTDVVITGRRAPRPIAGSGAGSGGAGAKRATVSEAAQVKHIDRVGPAGVSPAPPPNNTDSSSLVPGAQDSAPPGPTLRELWWVFYAADRALEEPRADSGLTREEVRAVRGFREQAWKLFGSAGAPRAFIGAALGLSPLQKLAVYYYIIHRERRLSPFPALVRLVGRYTQRHGLYVPRPDDPVLADAINGLFRDALAAGTTAEQLLMFDLLPPKDVPVGSDVQADSTALLRFIESQRLAVPGGVISPEHVAYLGAFLSVLYAGRGRMSAATHTARLTGVTSLVLAVGDVDRLSAFDRGAAGAASRTRAAGYLDVLLTVRLARSQHGQSV
modifications: left off: GFP, end not stated, kept
  Co-IP of endogenous PP1α: the interaction is disrupted by mutation of the TROPPO motif
Listed as FV242AA
  Co-IP of endogenous PP1α: PP1α coIP was abolished
